This note sets out measurements from a protein production outcome set (Wang et al. 2014).

A short description of the data set: label from the status in PepcDB records.
As for “MKSLIIGANGGVGQHLVRKLKARDVDFTAGVRKEEQVEALKADGIDATYIDVAKQSIDELIELFKSYDQILFSVGSGGSTGDDQTIIVDLDGAVKAIKASEQIDHQHFIMVSTYDSRREAFDASGDLKPYTIAKHYADDYLRHANLKYTIVHPGALTNEHETQQFNMSAQFENVQNPSITREDVAEVLVSVLTDEVLQGHEFQIINGDLSLLDATTKYLEE”, the protein production entry is reported as “failed”. For “SNPNDLPDFPEHEYAATQQVGEGVINGDLYLTSASGAIQKGTNTKVALEPATSYMKAYYAKFGNLDAAKRDPDVQPPVLDPRRATYVREATTDQNGRFDFDHIPNGTYYISSELTWSAQSDGKTITEGGTVTKLVTVSGSQPQKVLLTR”, the protein production result is listed as “not failed”.

“SLSEAGYPRKVMQHAEELHERILSFDSRITVPLDFGTTGNEVDKDGPGQLDLVKAGRGRLSGAALAIFGWPEMWNGPNAPHKPTPGFVDEARHQQEIRYKILTGMVRDFPNQVGIAYSPEDFRRLAMEGKFAIVMSMLNAYPLGDDLSQLDKWAARGVRMFGFSYVGNNDWADSSRPLPFFNDSPDALGGLSPLGKQAVERLNDLGVIIDVSQMSTKALEQVAALSRAPIVASHSAPRALVDIKRNLSDHEMQLIKDSGGVIQVVGFPAYLRPLSKPTLDKLDALRARFDLPPLEGLDYALMPGDPIITIWPEQRFGEYASALYGILEEEPKAGLKELVDAIDYTVKKVGIDHVGISSDFNDGGGVDGWKDVSEIRNVTAELITRGYSDADIAKLWGGNFLRAWGEVQKRAKPTATP”: the protein production result is “not failed”. For the sequence “MITFRKRVEIEADPAEVFRVISDPWRITEFWKGTRQVIEDGDFYRIRFAFPAWGLMSFHPDAERMTVLTSYLKGPVRGSKVDAVLVSSGKTVLQTEWNVRLSFYLRPFERRIASHFESGADHAINRIKESVEKDKK”, the protein production result is “failed”. The same measure for “MLLYNKQKKNQNAKGNRILISVTVLGSAGPIRFVAYEDDLVASVIDTALKGYAREGRLPLLGSDFNDFLLYCPMVGPEALSTWDAIGSLGARNFMLCRKPEEKKVEESNGRSDSTINGARKGGSLKAWINKSFNLKVSSH”: “failed”; for “MNPGGAEVSVVIPAWNAEATLGRALASVRAQTLAPRQVIVVNDGSSDATPEIAARMATKTFPVTVIDRTGRGSGPAAARNAGIAAAGEPFVAFLDADDVWLPDKLARQMAALRASPDAVLCCCDAQWVGEDAPARTAHPTIYEDRPIKGGAEAWKEILLDCYVGTPCVVARRAALIEAGGFDERLVVGEDQDLWIRLALQGPVIALPEVLVRYGLSADSHMARHRALAASLWLPHFEALVSGLGARLSAGERDAILRARLWRMARSVYLDGRKDLGLSLMARAVAHGLPRRARMVFLARARLRSALGRNGLEHHHHHH”: “failed”. In the case of “MDSGESGPQQWAGVVKVNDRMGYVTFTDAAGTELIPTNTIPVTLNARMAYIYCQVDEGQDLSTNPKSIKITLLADPTGIDATAITTPKVGESGDVTTNAPVGSLSFVSGYSTVAPFQFSENTIVLPVLYRVKNVTTTEDIKNELAKHTFTLVCYTDDIKSGDTILKLYLRYKVEDEPAAIAERATRTSSFKAYEISQILREYTLKSGQTKPAKITIVAQQNEYNNKLEDTSTIEKVYEIEYKTAE”, the protein production entry is “not failed”.

Consider “MPESRTVALVTLGCARNEVDSEELAGRLEADGWKLVDDAEEADVAVVNTCGFVEAAKKDSVDALLEANDLKGHGRTQAVVAVGCMAERYGKELADALPEADGVLGFDDYADISDRLQTILNGGIHAAHTPRDRRKLLPISPAERQEAGAAVALPGHGPTDLPEGVAPASGPRAPLRRRLDGSPVASVKLASGCDRRCSFCAIPSFRGSFISRRPSDVLNETRWLAEQGVKEIMLVSENNTSYGKDLGDIRLLESLLPNLAEVDGIERVRVSYLQPAEMRPGLIDVLTSTEKVAPYFDLSFQHSAPNVLRAMRRFGDTDRFLELLDTIRSKAPEAGVRSNFIVGFPGESEADLAELERFLNHARLDAIGVFGYSDEEGTEAATYGDKLDEDVVAERLARVSRLAEELVSQRADERVGATVRVLVESVDPAGEGDGVRGRAEHQAPETDGQVLLTSGAGLSVGRMVDAKVVGTEGVDLVAEPLLGSPEWSEEAGRLEHHHHHH”, for which the protein production entry is “failed”.

On to “TFDNLNSMNGKGSSTDGINYVFDSLMSSSLDEPGVMYPLLAKTATFDPEQTHFVIFELNPKARFSDGTPVTAQDVKFSFDTYQSKANPGLQMYISDLAKTEVLSKYRVKFSFKSQNNAEMPLILASLPIYSQKDWKNRDFTRVTLQPILGSGPYLIERIDPS”, for which the protein production result is given as “failed”. “MKLDLARKRPSLLARLWLRLGALLGRTLLLLLVIGLLGWALSSAWFAWHHRGPVAVQEQVPADEAARTQDIIQTAVRIVDQHREGTRYLRDAHAKAHGCVKAQVQVLNDLSPPLRQGVFATPGQTWQAVVRLSNGNAYPQFDSIRDARGMAIKLLDVPGQQLMASESQRREQDFVMFNHPNFFVSDVAEYQQNIAAQADGKKVGAFFPGWDPRTWQVRHLFIALATLSPAPASPTQTTYYSVSPYKFGNANAKFRVMPDPESCPAYSLPAQNQDLPNFLRSALTQQLSTDRVGACFVLQVQRQDPNRFMPIEDTSIEWKESDAPFETVARVTLPAQDFDTPAQNLACDNQSFNPWFGLEAHRPIGGINRLRKAVYEAVSDYRHSRNAEQ”: the protein production result is “failed”.

Consider “MISNEHINTQNFWYQLVEKMAIGVLVINNEGQILYANDYAVQLFGAIRTELIGTNFLYPMAADETQEVEILKSSNEILTAHMTVRKSIWENRQVWIISLFDIT”, for which the protein production entry was “failed”.

As to “MDFECQFVCELKELAPVPALLIRTQTTMSELGSLFEAGYHDILQLLAGQGKSPSGPPFARYFGMSAGTFEVEFGFPVEGGVEGSGRVVTGLTPSGKAASSLYIGPYGEIEAVYDALMKWVDDNGFDLSGEAYEIYLDNPLEHHHHHH”, the protein production result was “failed”. Then “MIFNTLARYFLKRYLMTTIWFVLGVSSIIYLADFSETARRMSGLPGYSVPAALGLTALRLPLILQQTVPFIALFVGMTTLISLNRRYELVVTRAAGISAWQFILPFVLGAVFIGILSVMVLNPIAAWGQNKSLAMEAGLRNDAGGGRQQEIIPWMRQSSGGKDTIIGAKSFEDNGTMLLDVVLIDVDKDGNIVSRKDAKSAKLEDGYWLLNGVSETRAGHVPVRQESMQISTNLRREFVQERMTQTETVAFFDLSHKIEVAKSFGLSSKALETQYHFLLSTPLLLVAMTLIAATVSLKFSRFAQSRSVILGGIVSGFVLYVVTVLVRAFGSGGVVPPTVAVWVPVIVALALGATILLHQEDG”, with “failed”; and “MDPNVITVTSYANIAIIKYWGKENQAKMIPSTSSISLTLENMFTTTSVSFLPDTATSDQFYINGILQNDEEHTKISAIIDQFRQPGQAFVKMETQNNMPTAAGLSSSSSGLSALVKACDQLFDTQLDQKALAQKAKFASGSSSRSFFGPVAAWDKDSGAIYKVETDLKMAMIMLVLNAAKKPISSREGMKLCRDTSTTFDQWVEQSAIDYQHMLTYLKTNNFEKVGQLTEANALAMHATTKTANPPFSYLTKESYQAMEAVKELRQEGFACYFTMDAGPNVKVLCLEKDLAQLAERLGKNYRIIVSKTKDLPDV”, with “not failed”; and “MIRLATKNDLLSITQLVKEAKQIMEEFNNNQWDDEYPAKEHFEEDIENKTLYVLDVDHTIYGFIVIDQNQSEWYDDIDWPVNRNGAYVIHRLAGSKQYKGAATELFQFAIDLANEHDIHVILTDTFALNKPAQGLFEKFGFTKVDEIEIDYHPFDRGAPFYAYYKNI”, with “failed”. With “HRSDPQIAICLDCLRNNGQSGDNVVKGLMKKFIRCSTRVTVGTIKKFLSLKLKLPSSYELDVLCNGEIMGKDHTMEFIYMTRWRLRGENFRCLNCSASQVCSQDGPLYQSYPMVLQYR”, the protein production result is “failed”.

For the sequence “MSEEFDESEIIFSDNYFPIRRREDGNEKENNRPVDFRENSERVWNKSSRRSKTTPLPSAVTAFSSSLPVNIPMRRYSTEEEYSDDDGGRKMIPPHLIVGRRMEGGQMAFSVCTGNGRTLKGRDLSRVRNSVLKLTGFLEA”, the protein production result is recorded as “failed”. The same measure for “MKIFLDSAITTDIQDRLATEIIDGVTTNPTLIKKSNEDPDVVYKELYDMRVKDISIEVRGDTAQELAANGILYGRKYGEVATIKLPCTVEGIKACKKLSILGHKTNMTLVFSVSQAILCAKAGATYVSPFVGRLDQIGEDGIQLIRDISRVYCVSGVKTQILAASIRSPKQAEDAYLAGADICTLPVKVFDQMFKHTLTDDGLKQFAIDFGINF”: “failed”; for “MKKGLTFSITSAALFFGMNHVASADQIHTVKEDAKLTDIAQTFATTTTEIQNLNHLQNRDYVQVGETIVLPDSDIVEVKDGDTIKAIAERHQMTMNQLYQLNPNLGEVIYPGQLVAVSEKGSAHLNNQLQQIFNSHEAVQPTAQINDDERNKAENNTIRNVRTSGNITPSATQTWQNNDYSASDRQQVSNTTANEQVTSNYQYSPVSHASNGSNYYDWGQCTYYAFDRRQQLGKSVGNLWGNANNWASAAQQSGYQVNNTPEVGAIFQSTAGNYGHVGVVESKNADGSIVVSEMNWQGVGQKSYRTIHNTGQYNYIHLEHHHHHH”: “failed”; for “MFTMVQKLWLTVVCAVFVTVSFLYFVSLYSYEKLYVDNLKDSLVMEGKRLSAQYDKREGISIFEEKVRAFDQISSSDVLFVSNPRDLSACLPFDVHHHSLISEGDRQALLDGKTVTKIGYEEHFDRNIMGVVIPVLENKKLVGIVYSYIPLKSIKDLIYDMGLILAPLALAITLLTIWIGRKIIIAITKPLSQMERVANHLATGDFSERITISSEDEIGRLGKAFNKMANSLETEDVKRKEFLANVSHELRTPLSYIKGYSEAILDGVAKGPQQEKVTQLIHKEADRMQRLVHDLLDLAQLEGEHFPLKKQPIVFSQLIEDVLDTYEIKFIEKKIRISTNLNPEIIVMIDEDRMQQVLHNVLDNAIRYTNQNGDIIVTLRQIDDYCELNIKDTGIGIDTEHLENLGERFYRVDKARSRQHGGTGLGLAIVRQIVHIHDGQWRIESEKGNGTTVSIKLKVQDEESMF”: “failed”. Then “MIKGFRLWILIVSLGLSFSFLGYQWLTRYNFNTDHQVGDVIDSLNGVEIYYNGGVNTNEGRNLSLDGYNLGIKYQCVEFVKRYFYQRYQHQMPDSFGHARDFFDNLLTDGSWNEKRALRQFTNGSQSKPMADDLLVFAPWILNPYGHVAIIAAVTDKGIEIAQQNPGPFAPSREYFPLIQRDGLWYIDAPRAKGWLRWEATSPNVATENSGFIDPVMVIKELEHHHHHH”, with “not failed”; and “MHLRDRPGFGPGGPFRFRALPRAADKGTMMFKKILIANRGEIACRVIKTARKMGIQTVAVYSDADRNALHVSMADEAIHIGPPPANQSYIVIDKIMEAIKASGAEAVHPGYGFLSERMDFAAALEAAGVVFIGPPSGAIEAMGDKITSKKLAKEAGVSTVPGYMGLIADADEAVKISNEIGYPVMIKASAGGGGKGMRIAWSEAEVKEGFESSKNEAANSFGDDRIFIEKFVTQPRHIEIQVLADKHGNCVYLHERECSIQRRNQKVIEEAPSPFLDEATRKAMGEQACALAKAVGYASAGTVEFIVDGQKNFYFLEMNTRLQVEHPVTELITGIDLVEQMIRVAAGEKLPFQQSDLKINGWAMESRLYAEDPYRNFLPSIGRLTRYRPPVESVTPTSVVRNDTGVYEGGEISMYYDPMIAKLCTWAPTREAAIEEMRLALDTFEVEGIGHNLPFVGAVMDHPRFVKGDITTAFIAEEYPDGFQGAVLDEPTLRRVAAAAAAMNRVAEIRRTRISGTMNNHERHVGVDWVVALQGESYHVSIAADREGSTVSFSDGSSLRVTSDWTPGQPLASLMVDGRPLVMKVGKIPMGFRLRLRGADLKVNVRTPRQAELALLMPEKLPPDTSKYLLCPMPGLVVKINVAEGDEVQEGQALATVEAMKMENILRAERRGTVKKIAAAPGASLRVDDVIMEFE”, with “failed”.
